The record followed here is publication PMC3201874.

In the data set the target is huPrP(23-110) (human) (UniProt P04156). Conditions: FRET: 25 mM Tris-HCl pH 7.5, 30 mM NaCl, 0.2 mM MgCl2, 20 C.
Chain of huPrP(23-110) (human) (P04156 23-110): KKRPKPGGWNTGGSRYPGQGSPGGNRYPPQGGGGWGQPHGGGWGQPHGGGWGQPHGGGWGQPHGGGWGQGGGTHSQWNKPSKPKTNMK

cTAR returned a Ka of over 1e+07 M⁻¹.
